Results as given in the supplement of paper PMC10065799, “High-throughput profiling of sequence recognition by tyrosine kinases and SH2 domains using bacterial peptide display” (eLife, 2023).

Assays:
c-Src = assay: phosphorylation enrichment, bacterial display (enrichment ratio); higher = better substrate or ligand; peptides without Tyr show the background
EPHB1 = EPHB1 (UniProt P54762); assay: as above
AncSZ = assay: as above
Hck = Hck (UniProt P08631); assay: as above
EPHB2 = EPHB2 (UniProt P29323); assay: as above
Sequence of EPHB2 (P29323 whole entry, looked up): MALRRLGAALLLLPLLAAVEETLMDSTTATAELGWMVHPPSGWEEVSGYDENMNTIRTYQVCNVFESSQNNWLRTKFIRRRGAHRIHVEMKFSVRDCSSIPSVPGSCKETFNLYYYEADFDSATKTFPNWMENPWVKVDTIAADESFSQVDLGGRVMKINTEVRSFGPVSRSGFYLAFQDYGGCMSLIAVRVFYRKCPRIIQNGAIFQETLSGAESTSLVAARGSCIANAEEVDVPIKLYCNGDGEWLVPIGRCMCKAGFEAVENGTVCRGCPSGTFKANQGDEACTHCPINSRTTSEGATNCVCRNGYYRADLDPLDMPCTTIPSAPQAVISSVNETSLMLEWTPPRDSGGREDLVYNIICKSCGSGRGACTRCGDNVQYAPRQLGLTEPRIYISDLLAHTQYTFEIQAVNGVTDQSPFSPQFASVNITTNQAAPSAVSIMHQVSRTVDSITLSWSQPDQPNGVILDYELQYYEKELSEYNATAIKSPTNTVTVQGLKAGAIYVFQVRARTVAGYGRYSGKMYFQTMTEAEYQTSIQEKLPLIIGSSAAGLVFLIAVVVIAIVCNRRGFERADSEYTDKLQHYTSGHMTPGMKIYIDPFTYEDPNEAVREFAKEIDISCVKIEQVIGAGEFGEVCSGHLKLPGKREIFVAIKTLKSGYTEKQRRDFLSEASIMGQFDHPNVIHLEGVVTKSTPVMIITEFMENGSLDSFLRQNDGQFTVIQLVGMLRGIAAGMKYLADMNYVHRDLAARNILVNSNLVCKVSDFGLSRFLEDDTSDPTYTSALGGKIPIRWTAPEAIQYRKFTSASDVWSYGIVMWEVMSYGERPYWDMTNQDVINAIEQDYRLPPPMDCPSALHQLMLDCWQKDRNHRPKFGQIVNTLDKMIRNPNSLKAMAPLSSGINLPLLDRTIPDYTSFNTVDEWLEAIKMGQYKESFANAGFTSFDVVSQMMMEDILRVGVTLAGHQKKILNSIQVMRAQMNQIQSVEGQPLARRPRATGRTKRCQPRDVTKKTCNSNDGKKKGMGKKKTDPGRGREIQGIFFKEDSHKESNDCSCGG

Fyn = Fyn (UniProt P06241); assay: as above
Sequence of Fyn (P06241 whole entry, looked up): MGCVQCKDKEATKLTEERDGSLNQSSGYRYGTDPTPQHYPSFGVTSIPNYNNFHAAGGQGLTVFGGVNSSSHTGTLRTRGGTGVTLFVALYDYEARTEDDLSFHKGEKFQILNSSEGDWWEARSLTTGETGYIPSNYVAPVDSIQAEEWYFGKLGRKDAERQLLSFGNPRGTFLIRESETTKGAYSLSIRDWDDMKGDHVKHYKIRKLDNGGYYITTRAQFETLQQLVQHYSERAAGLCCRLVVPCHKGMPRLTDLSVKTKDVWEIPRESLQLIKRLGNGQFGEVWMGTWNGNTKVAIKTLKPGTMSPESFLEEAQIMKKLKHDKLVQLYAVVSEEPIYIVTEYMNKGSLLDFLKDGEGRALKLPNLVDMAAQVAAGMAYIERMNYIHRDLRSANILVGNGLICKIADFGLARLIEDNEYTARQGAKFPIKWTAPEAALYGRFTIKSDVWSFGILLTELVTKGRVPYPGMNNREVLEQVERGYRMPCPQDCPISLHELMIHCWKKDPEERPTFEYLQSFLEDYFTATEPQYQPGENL

MERTK = MERTK (UniProt Q12866); assay: as above
FGFR3 = FGFR3 (UniProt P22607); assay: as above
Sequence of FGFR3 (P22607 whole entry, looked up): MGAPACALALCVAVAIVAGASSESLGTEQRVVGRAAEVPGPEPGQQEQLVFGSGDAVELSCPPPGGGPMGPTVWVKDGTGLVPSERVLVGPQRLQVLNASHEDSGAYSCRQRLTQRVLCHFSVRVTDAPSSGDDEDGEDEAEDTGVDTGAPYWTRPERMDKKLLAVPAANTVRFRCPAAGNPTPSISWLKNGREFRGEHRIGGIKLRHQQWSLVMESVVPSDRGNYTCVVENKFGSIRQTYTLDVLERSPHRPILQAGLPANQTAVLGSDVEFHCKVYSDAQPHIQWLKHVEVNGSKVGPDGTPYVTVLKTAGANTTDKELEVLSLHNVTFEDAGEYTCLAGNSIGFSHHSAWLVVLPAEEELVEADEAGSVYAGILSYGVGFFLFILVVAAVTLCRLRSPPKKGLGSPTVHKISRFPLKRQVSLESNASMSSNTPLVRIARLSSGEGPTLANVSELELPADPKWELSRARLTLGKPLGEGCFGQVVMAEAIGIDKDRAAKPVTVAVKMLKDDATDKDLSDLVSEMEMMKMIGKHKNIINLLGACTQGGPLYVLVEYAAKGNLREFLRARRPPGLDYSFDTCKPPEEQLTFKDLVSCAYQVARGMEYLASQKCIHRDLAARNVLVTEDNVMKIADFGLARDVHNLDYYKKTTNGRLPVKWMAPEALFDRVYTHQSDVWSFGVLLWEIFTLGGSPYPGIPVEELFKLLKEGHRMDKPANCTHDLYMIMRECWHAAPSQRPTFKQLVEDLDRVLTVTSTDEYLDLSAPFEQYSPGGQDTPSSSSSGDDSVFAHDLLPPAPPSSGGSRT

Jak2 = Jak2 (UniProt O60674); assay: as above
Sequence of Jak2 (O60674 whole entry, looked up): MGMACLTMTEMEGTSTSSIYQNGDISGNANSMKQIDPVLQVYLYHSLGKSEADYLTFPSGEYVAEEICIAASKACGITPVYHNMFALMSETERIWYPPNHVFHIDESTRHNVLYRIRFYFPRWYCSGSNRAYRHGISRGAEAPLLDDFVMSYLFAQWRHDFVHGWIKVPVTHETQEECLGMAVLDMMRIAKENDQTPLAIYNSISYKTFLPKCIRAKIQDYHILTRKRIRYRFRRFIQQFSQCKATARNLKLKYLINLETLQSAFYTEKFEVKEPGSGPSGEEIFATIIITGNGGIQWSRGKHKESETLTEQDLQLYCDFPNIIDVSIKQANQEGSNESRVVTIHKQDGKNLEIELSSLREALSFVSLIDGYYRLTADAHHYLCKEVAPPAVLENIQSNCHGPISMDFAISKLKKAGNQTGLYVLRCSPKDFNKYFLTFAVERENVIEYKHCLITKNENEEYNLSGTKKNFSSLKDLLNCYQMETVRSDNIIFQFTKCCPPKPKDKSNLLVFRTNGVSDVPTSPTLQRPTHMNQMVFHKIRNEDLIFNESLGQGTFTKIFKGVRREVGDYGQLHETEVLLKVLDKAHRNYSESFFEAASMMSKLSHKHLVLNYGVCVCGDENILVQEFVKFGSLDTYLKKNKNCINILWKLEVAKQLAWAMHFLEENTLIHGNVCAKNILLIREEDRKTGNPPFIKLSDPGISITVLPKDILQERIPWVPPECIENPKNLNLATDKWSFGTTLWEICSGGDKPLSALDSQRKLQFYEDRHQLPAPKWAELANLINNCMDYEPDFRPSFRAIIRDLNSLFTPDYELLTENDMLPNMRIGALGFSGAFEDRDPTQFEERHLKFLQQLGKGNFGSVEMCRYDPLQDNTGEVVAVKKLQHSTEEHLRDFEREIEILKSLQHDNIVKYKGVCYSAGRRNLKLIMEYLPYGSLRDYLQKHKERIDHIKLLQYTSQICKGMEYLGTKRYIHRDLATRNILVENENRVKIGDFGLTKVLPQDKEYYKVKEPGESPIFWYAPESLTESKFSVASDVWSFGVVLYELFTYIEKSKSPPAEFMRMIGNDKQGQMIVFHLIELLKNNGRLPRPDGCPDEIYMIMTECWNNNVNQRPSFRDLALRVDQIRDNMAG

Fer (mouse) = assay: as above
FGFR1 = FGFR1 (UniProt P11362); assay: as above
c-Abl (mouse) = assay: as above
Fes = Fes (UniProt P07332); assay: as above
Sequence of Fes (P07332 whole entry, looked up): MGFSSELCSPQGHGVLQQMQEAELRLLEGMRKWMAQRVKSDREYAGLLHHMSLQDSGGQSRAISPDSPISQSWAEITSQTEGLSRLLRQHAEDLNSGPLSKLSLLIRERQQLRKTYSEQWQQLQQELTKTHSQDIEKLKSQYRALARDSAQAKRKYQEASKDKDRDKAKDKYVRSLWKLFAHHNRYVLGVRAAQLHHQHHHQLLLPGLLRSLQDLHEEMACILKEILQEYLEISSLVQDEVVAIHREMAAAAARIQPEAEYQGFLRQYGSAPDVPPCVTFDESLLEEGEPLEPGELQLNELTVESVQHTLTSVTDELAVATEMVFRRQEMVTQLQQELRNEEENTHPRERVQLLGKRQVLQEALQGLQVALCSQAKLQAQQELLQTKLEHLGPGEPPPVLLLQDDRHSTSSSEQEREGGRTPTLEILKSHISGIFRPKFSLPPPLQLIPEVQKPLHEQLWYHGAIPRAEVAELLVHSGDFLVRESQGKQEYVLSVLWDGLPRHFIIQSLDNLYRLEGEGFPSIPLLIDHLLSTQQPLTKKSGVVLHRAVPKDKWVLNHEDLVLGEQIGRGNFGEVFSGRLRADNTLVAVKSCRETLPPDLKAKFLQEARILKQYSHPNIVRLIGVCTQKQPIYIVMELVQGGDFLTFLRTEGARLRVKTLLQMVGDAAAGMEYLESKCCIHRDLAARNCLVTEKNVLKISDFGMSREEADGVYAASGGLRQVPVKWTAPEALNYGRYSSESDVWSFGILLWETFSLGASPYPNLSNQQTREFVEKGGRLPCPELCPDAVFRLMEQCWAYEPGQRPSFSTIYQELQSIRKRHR

SHP2-C SH2 = assay: SH2 binding enrichment of the phosphorylated peptide, bacterial display (enrichment ratio); higher = better substrate or ligand; peptides without Tyr show the background
Grb2 SH2 = Grb2 SH2 (UniProt P62993); assay: as above
c-Src SH2 = assay: as above
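Wherever SH2 binding enrichment of the phosphorylated peptide, bacterial display is given: peptide library displayed on the E. coli surface as eCPX fusions, selected cells deep-sequenced, score is each peptide's frequency after selection divided by its frequency in the input.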
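Wherever phosphorylation enrichment, bacterial display is given: 11-residue human phosphosite peptides and single-mutation variants displayed on the E. coli surface, counted by deep sequencing, each peptide's frequency after selection divided by its frequency in the unselected input library; frequency after pTyr selection over input frequency; kinase dosed for 20-30% of maximal phosphorylation in three min.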

Sequence of Hck (P08631 whole entry, looked up): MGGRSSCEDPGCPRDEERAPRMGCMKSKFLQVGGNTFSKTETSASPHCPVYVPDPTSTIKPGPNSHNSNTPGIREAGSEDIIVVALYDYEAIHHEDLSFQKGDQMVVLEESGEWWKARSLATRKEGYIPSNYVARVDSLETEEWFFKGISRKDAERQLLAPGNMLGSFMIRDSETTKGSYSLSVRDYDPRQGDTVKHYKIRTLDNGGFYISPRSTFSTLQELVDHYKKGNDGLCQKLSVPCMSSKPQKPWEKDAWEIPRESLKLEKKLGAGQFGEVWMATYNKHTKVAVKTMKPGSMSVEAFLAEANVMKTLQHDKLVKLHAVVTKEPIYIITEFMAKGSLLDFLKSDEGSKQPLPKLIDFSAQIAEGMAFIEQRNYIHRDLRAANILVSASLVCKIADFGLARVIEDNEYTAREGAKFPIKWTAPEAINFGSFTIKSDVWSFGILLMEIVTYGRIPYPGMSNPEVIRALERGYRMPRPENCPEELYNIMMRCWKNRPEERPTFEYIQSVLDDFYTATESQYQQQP

Sequence | SH2 binding enrichment (SHP2-C SH2) | SH2 binding enrichment (Grb2 SH2) | SH2 binding enrichment (c-Src SH2) | phosphorylation enrichment (c-Src) | phosphorylation enrichment (EPHB1) | phosphorylation enrichment (AncSZ) | phosphorylation enrichment (Hck) | phosphorylation enrichment (EPHB2) | phosphorylation enrichment (Fyn) | phosphorylation enrichment (MERTK) | phosphorylation enrichment (FGFR3) | phosphorylation enrichment (Jak2) | phosphorylation enrichment (Fer (mouse)) | phosphorylation enrichment (FGFR1) | phosphorylation enrichment (c-Abl (mouse)) | phosphorylation enrichment (Fes)
SLGKGYYDGGC [MC4R_Y35_S36Y] | 0.59 | 0.741 | 0.727 | 0.543 | 0.65 | 0.96 | 0.552 | 0.591 | 0.611 | 0.514 | 0.68 | 1.03 | 0.648 | 0.635 | 0.841 | 1.33
SLGSPYGQPPR [PDLIM4_Y137] | 0.563 | 1.06 | 0.501 | 0.461 | 0.413 | 0.747 | 0.365 | 0.448 | 0.553 | 0.378 | 0.526 | 0.484 | 0.356 | 0.426 | 0.486 | 0.771
SLKEFYGEDAK [ALDH3A1_Y272] | 0.599 | 0.916 | 0.511 | 0.44 | 0.434 | 0.929 | 0.501 | 0.472 | 0.51 | 0.388 | 0.692 | 0.903 | 0.588 | 0.472 | 0.561 | 1.08
SLQFEYVHYGG [CDC14A_Y591_S589F] | 0.523 | 0.686 | 0.609 | 0.465 | 0.556 | 1.06 | 0.551 | 0.628 | 0.516 | 0.348 | 0.742 | 0.766 | 0.481 | 0.797 | 0.405 | 0.904
SMAKFYASEIA [ACADSB_Y373_YF] | 0.674 | 0.788 | 0.393 | 0.464 | 0.403 | 0.686 | 0.518 | 0.472 | 0.434 | 0.437 | 0.604 | 0.619 | 0.61 | 0.513 | 0.588 | 0.803
SRGRQYQELPR [KCNH2_Y1009] | 0.565 | 0.925 | 1.29 | 0.441 | 0.316 | 0.512 | 0.527 | 0.347 | 0.317 | 0.36 | 0.423 | 0.455 | 0.349 | 0.4 | 0.463 | 0.462
SRIWVYNHFRC [BRCA2_Y2621_W2626C_YF] | 0.589 | 0.869 | 0.558 | 0.483 | 0.638 | 1.16 | 0.543 | 0.672 | 0.547 | 0.466 | 0.937 | 1.19 | 0.653 | 0.575 | 0.976 | 1.43
SSFSGYIMMPN [LEF1_Y114_YF] | 1.03 | 0.999 | 2.08 | 0.4 | 0.433 | 1.02 | 0.421 | 1.47 | 0.534 | 0.562 | 1.39 | 3.33 | 0.401 | 1.53 | 0.603 | 0.934
SVKVYYKKCWS [EPHA7_Y202] | 0.521 | 0.716 | 0.393 | 0.432 | 0.549 | 0.951 | 0.424 | 0.432 | 0.352 | 0.379 | 0.733 | 1.21 | 0.483 | 0.414 | 1.2 | 1.25
SVMAEYGLFAA [VSX2_Y219_G223A_YF] | 0.627 | 0.881 | 0.462 | 4.95 | 0.484 | 0.822 | 2.76 | 0.578 | 5.82 | 0.396 | 0.564 | 0.734 | 0.664 | 0.505 | 0.675 | 0.845
SVTCTYSPAFN [TP53_Y126_L130F] | 0.646 | 0.664 | 0.463 | 0.66 | 0.8 | 1.35 | 0.592 | 0.59 | 0.518 | 0.418 | 0.897 | 1.31 | 0.553 | 0.49 | 1 | 1.51
SVTCTYSPAHN [TP53_Y126_L130H] | 0.605 | 0.644 | 0.367 | 0.802 | 0.773 | 1.37 | 0.517 | 0.705 | 0.497 | 0.663 | 0.865 | 2.08 | 0.799 | 0.502 | 1.17 | 1.59
SVTCTYSRALN [TP53_Y126_P128R] | 0.596 | 0.62 | 0.46 | 0.494 | 0.626 | 1.09 | 0.523 | 0.602 | 0.429 | 0.401 | 0.796 | 1.07 | 0.5 | 0.461 | 0.916 | 1.28
SVVVPYEPPKV [TP53_Y220_E224K] | 0.512 | 0.806 | 0.64 | 0.465 | 0.474 | 0.827 | 0.465 | 0.59 | 0.387 | 0.366 | 0.612 | 0.822 | 0.45 | 0.41 | 0.895 | 0.837
TDLAYYLVRKG [ASL_Y376] | 1.41 | 0.95 | 0.795 | 0.783 | 0.468 | 0.963 | 0.716 | 0.629 | 0.539 | 0.684 | 2.42 | 2.05 | 0.48 | 3.17 | 0.672 | 0.962
TFFQMYDKGLV [IARS2_Y231_YF] | 0.7 | 0.99 | 0.526 | 0.537 | 0.531 | 0.862 | 1.06 | 0.569 | 0.566 | 0.542 | 0.623 | 1.03 | 0.57 | 0.52 | 0.734 | 1.14
TFINKYQGKLF [HGD_Y249_V245F] | 0.78 | 0.726 | 0.629 | 0.347 | 0.391 | 0.566 | 0.368 | 0.346 | 0.414 | 0.631 | 0.457 | 0.457 | 0.358 | 0.387 | 0.52 | 0.589
TFMKKYPKVFL [CNBD1_Y70_Q69K] | 1.52 | 1.12 | 1.17 | 0.447 | 0.508 | 3.41 | 0.366 | 0.419 | 0.357 | 0.404 | 0.419 | 0.642 | 0.393 | 0.485 | 0.548 | 0.662
TGDFGYRTPGY [TNS2_Y668_A670T] | 0.889 | 0.762 | 0.466 | 0.432 | 0.4 | 0.524 | 0.394 | 0.423 | 0.479 | 0.481 | 0.465 | 0.484 | 0.342 | 0.404 | 0.459 | 0.651

Second part, led by results:

SH2 binding enrichment (SHP2-C SH2) | SH2 binding enrichment (Grb2 SH2) | SH2 binding enrichment (c-Src SH2) | Sequence | phosphorylation enrichment (c-Src) | phosphorylation enrichment (EPHB1) | phosphorylation enrichment (AncSZ) | phosphorylation enrichment (Hck) | phosphorylation enrichment (EPHB2) | phosphorylation enrichment (Fyn) | phosphorylation enrichment (MERTK) | phosphorylation enrichment (FGFR3) | phosphorylation enrichment (Jak2) | phosphorylation enrichment (Fer (mouse)) | phosphorylation enrichment (FGFR1) | phosphorylation enrichment (c-Abl (mouse)) | phosphorylation enrichment (Fes)
1.1 | 0.938 | 1.45 | SLFNGYVFSGM [NEIL3_Y71_V76M_YF] | 0.482 | 0.532 | 0.954 | 0.531 | 0.541 | 0.421 | 0.435 | 0.629 | 1.08 | 0.504 | 0.487 | 0.697 | 1.07
0.84 | 0.788 | 0.598 | SLNEGYAKDFD [FBP1_Y216_R218K] | 0.371 | 0.508 | 1.02 | 0.525 | 0.6 | 0.534 | 0.437 | 0.716 | 0.71 | 0.511 | 0.566 | 0.589 | 0.937
0.672 | 0.75 | 0.384 | SNYRAYATEPQ [TNNI3_Y29_H34Q] | 0.44 | 0.461 | 0.699 | 0.497 | 0.467 | 0.419 | 0.428 | 0.475 | 0.597 | 0.444 | 0.389 | 0.464 | 0.72
0.57 | 0.786 | 0.464 | SSSPTYLDLPF [GLI3_Y168_P169L] | 0.647 | 8.94 | 0.659 | 2.25 | 2.73 | 0.638 | 1.12 | 3.79 | 0.592 | 0.621 | 5.82 | 0.681 | 0.667
0.63 | 0.798 | 0.891 | STKELYEKYMI | 0.821 | 0.504 | 0.805 | 0.72 | 0.594 | 0.602 | 0.412 | 0.591 | 0.69 | 5.61 | 0.484 | 0.518 | 0.825
0.695 | 0.824 | 0.479 | SVSVNYGDLVQ [GRAP_Y101_Q104L] | 0.419 | 0.516 | 0.745 | 0.476 | 0.557 | 0.506 | 0.42 | 0.633 | 0.728 | 0.54 | 0.565 | 0.61 | 0.855
0.683 | 0.78 | 0.538 | SVTCTYSPVLN [TP53_Y126_A129V] | 0.815 | 0.795 | 1.37 | 0.876 | 0.692 | 0.613 | 0.435 | 0.831 | 1.21 | 1.02 | 0.558 | 0.804 | 1.6
0.867 | 0.854 | 0.844 | SVVVPYEPPEI [TP53_Y220_V225I] | 0.447 | 0.552 | 1.15 | 0.616 | 0.62 | 0.408 | 0.37 | 0.665 | 0.967 | 0.4 | 0.44 | 0.8 | 1.25
0.52 | 0.989 | 0.514 | TAALWYIYLHT [ENG_Y612_S615L] | 0.566 | 0.796 | 1.41 | 0.579 | 0.639 | 0.587 | 0.516 | 1.1 | 1.55 | 0.769 | 0.81 | 1.18 | 1.66
0.963 | 0.633 | 0.476 | TEDELYQLFLQ [RASGRP2_Y378_S381F] | 4.23 | 1.05 | 3.06 | 3.67 | 0.825 | 4.54 | 2.01 | 1.9 | 1.3 | 8.85 | 1.37 | 1.13 | 1.56
1.04 | 0.783 | 0.962 | TENAGYYFQVS | 0.509 | 0.78 | 1.39 | 0.563 | 0.713 | 0.456 | 1.29 | 1.76 | 1.99 | 0.604 | 2 | 0.983 | 1.52
0.863 | 0.969 | 0.5 | TEQDPSNNIVR [MMUT_Y364_Y364S] | 0.492 | 0.468 | 0.824 | 0.408 | 0.46 | 0.492 | 0.464 | 0.557 | 0.771 | 0.408 | 0.55 | 0.768 | 1
1.2 | 1.04 | 1.05 | TFRPPYYHRDC [HGD_Y333_N337D] | 0.583 | 0.834 | 1.17 | 0.822 | 0.734 | 0.658 | 0.499 | 1.12 | 0.82 | 0.756 | 0.874 | 0.639 | 1.28
0.491 | 0.626 | 0.377 | TGEDWYVLVRV [SF3B3_Y904_G908R] | 0.385 | 0.893 | 1.37 | 0.561 | 0.64 | 0.433 | 0.364 | 0.827 | 1.21 | 0.524 | 0.405 | 0.954 | 1.42
